In patent US20230331862A1 (SHANGHAI GENBASE BIOTECHNOLOGY, published 2023):
Residue numbers refer to the chain shown, from its start. Like-named read-outs stand apart in the source and are kept apart here. Blank lines part the entries; values can stand above or below the binder they belong to.

Key:
[1] = target: T1, CEACAM5 (CD66e) on tumour cells (human, UniProt P06731 35-685, glycosylated (natural, as on tumour cells)); experiment: flow cytometry on KATO3 cells, anti-human IgG Fc-APC
T1 construct: whole, on cells; One molecule for CEACAM5 on all three cell lines; the cell line is named under assay; also called natural CEACAM5 antigen; Lovo cells
T1 sequence (looked up): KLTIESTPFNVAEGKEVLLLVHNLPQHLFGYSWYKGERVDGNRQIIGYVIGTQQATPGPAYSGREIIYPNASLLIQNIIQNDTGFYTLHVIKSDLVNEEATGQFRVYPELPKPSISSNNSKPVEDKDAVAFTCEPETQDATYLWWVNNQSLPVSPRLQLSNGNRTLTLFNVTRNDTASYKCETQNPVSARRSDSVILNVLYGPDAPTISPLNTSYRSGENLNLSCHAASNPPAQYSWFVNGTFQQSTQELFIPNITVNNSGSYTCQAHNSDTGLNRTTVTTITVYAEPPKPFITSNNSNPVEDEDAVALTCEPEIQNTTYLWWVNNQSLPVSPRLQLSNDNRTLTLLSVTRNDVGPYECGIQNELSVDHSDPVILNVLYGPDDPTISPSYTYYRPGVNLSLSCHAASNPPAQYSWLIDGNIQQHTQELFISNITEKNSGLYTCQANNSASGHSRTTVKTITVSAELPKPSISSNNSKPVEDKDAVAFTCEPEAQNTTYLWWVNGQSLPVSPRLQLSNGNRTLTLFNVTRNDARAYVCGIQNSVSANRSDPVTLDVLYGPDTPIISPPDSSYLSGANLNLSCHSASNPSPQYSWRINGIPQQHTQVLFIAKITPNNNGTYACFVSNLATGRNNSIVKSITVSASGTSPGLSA
Method: KATO3 cells (high expression of CEACAM5) were cultured in RPMI1640 medium containing 10% FBS. After the cells were digested with TrypLE trypsin, they were centrifuged and resuspended in DPBS solution containing 2% BSA (FACS buffer, 4° C.), and added to a U-bottom 96-well plate, 5×10⁵/100 μl/well, the antibody diluted in concentration gradient was added, incubated at 4° C. for 1 hour, the supernatant was discarded after centrifugation; 100 μl of solution containing anti-human IgG Fc-APC secondary antibody was added to each well and incubated at 4° C. for 1 hour, then washing was performed with FACS buffer once, resuspending was performed in 200 μl of FACS buffer, and the fluorescence signal value was read on BD C6 plus.

[2] = target: T2, recombinant CEACAM5 antigen (Sinobiological, 11077-H08H) (UniProt P06731 35-685); experiment: ELISA, coated recombinant CEACAM5-His 1 µg/ml, anti-human IgG Fc-HRP
T2 construct: Bought protein; also called CEACAM5-His recombinant protein; CEACAM5-His antigen; not shown: His tag
T2 sequence (looked up): T1 sequence (looked up)
Method: Recombinant CEACAM5 antigen (Sinobiological, 11077-H08H) was diluted to 1 μg/ml with DPB S solution, add into a 96-well plate, 100 μl per well, and coated overnight at 2-8° C.; the coating solution was discarded, washing was performed twice with PBS solution, PBS solution containing 2% BSA was added, and blocking was performed at room temperature for 2 hours; the blocking solution was discarded, the humanized antibody diluted in concentration gradient was added, and incubated at 37° C. for 1 hour; the antibody solution was discarded, and washing was performed for 4 times with PBS solution containing 0.05% Tween 20 (PBST solution); the anti-human IgG Fc-HRP secondary antibody was added and incubated at 37° C. for 30 minutes; washing was performed for 4 times with PBST solution, TMB chromogenic substrate was added, and color development was carried out for 5-10 minutes, then the reaction was terminated by adding equal volume of 1M H₂SO₄; the absorbance at 450 nm was read on a microplate reader.

[3] = target: T1, CEACAM5 (CD66e) on tumour cells; experiment: competition by flow cytometry on KATO3 cells; competitor mouse M19 (m2F4) at 1 µg/ml, detected with anti-mouse IgG Fc-APC
Method: KATO3 cells (high expression of CEACAM5) were cultured in RPMI1640 medium containing 10% FBS. After the cells were digested with TrypLE trypsin, they were centrifuged and resuspended in DPB S solution containing 2% BSA (FACS buffer, 4° C.), and added a U-bottom 96-well plate, 5×10⁵/100 μl/well, the mouse monoclonal antibody M19 antibody (m2F4) was added to 1 μg/ml and the humanized antibody diluted in gradient (50 μg/ml, 3-fold dilution) was added, then incubated at 4° C. for 1 hour, the supernatant was discarded after centrifugation; 100 μl of solution containing anti-mouse IgG Fc-APC secondary antibody was added to each well and incubated at 4° C. for 1 hour, washing was performed once with FACS buffer, resuspending was performed in 200 μl FACS buffer, and the fluorescence signal value was read on BD C6 plus.

[4] = target: T1, CEACAM5 (CD66e) on tumour cells; experiment: hybridoma supernatant on Lovo cells, anti-mouse Fc-FITC, Celigo imaging
Method: Lovo cells and Lovo CEA KO cells were inoculated in 96-well plates, 10⁴ per well, and cultured overnight, 1-10 μl of hybridoma supernatant was added to Lovo/Lovo CEA KO cell culture plates, incubated for 1 hour, the supernatant was discarded, anti-mouse Fc-FITC fluorescent secondary antibody was added, incubated for 1 hour, the supernatant was discarded, DPBS solution containing 2% BSA was added, the fluorescent signals and FITC staining areas were read and analyzed in Celigo.

[5] = target: T1, CEACAM5 (CD66e) on tumour cells; experiment: flow cytometry on KATO3 cells, anti-human IgG Fc-APC; remark: listed apart in the source
Method: (§1) After the cells were digested with TrypLE, they were centrifuged and resuspended in DPBS solution containing 2% BSA (FACS buffer solution, 4° C.), and added into a U-bottom 96-well plate, 5×10⁵/100 μl/well, and antibody diluted in concentration gradient was added, incubated at 4° C. for 1 hour, the supernatant was discarded after centrifugation; 100 μl of solution containing anti-human IgG Fc-APC secondary antibody was added and incubated at 4° C. for 1 hour, washing was performed once with FACS buffer, resuspending was performed in 200 μl FACS buffer, and the fluorescence signal value was read on BD Cantoll.

[6] = target: T1, CEACAM5 (CD66e) on tumour cells; experiment: flow cytometry on LS174T cells, anti-human IgG Fc-APC
Method: as §1

[7] = target: T2, recombinant CEACAM5 antigen …; experiment: ELISA, coated recombinant CEACAM5-His 1 µg/ml, anti-human IgG Fc-HRP; remark: listed apart in the source
Method: The recombinant CEACAM5 antigen (Sinobiological, 11077-H08H) was diluted to 1 μg/ml with DPBS solution, added to a 96-well plate, 100 μl per well, and coated overnight at 2-8° C.; the coating solution was discarded, washing was performed twice with PBS solution, PBS solution containing 2% BSA was added, and blocked at room temperature for 2 hours; the blocking solution was discarded, the antibody diluted in concentration gradient was added, and incubated at 37° C. for 1 hour; the antibody solution was discarded, and washing was performed for 4 times with PBS solution containing 0.05% Tween 20 (PBST solution); anti-human IgG Fc-HRP secondary antibody was added and incubated at 37° C. for 30 minutes; washing was performed for 4 times with PBST solution, TMB chromogenic substrate was added, color development was performed for 5-10 minutes, and the reaction was terminated with equal volume of 1M H₂SO₄; the absorbance at 450 nm was read on a microplate reader.

B1: Humanized antibody hAb-013 (antibody, V domains shown)
VH: EVQLVESGGGLVQPGGSLRLSCAASGFTFTDYYMDWVRQAPGKALEWVGFTRNKVNGDTTEYAASVKGRFTISRDDSKNSLYLQMNSLKTEDTAVYYCARDKGIAYYFDYWGQGTLVTVSS
VL: QIVLTQSPATLSASPGERATLSCRASSSVSYIHWYQQKPGQSPRPLIYGTSNLASGVPARFSGSGSGTDFTLTISSLEPEDAAVYYCQQWSSNLSTFGGGTKVEIK
notes: also called hM19-11
EC50 [1]: 12.7 µg/mL
Emax [1]: 49.3%
EC50 [2]: 6.1 µg/mL
Emax Inhibition, % [3]: 89%
IC50 [3]: 5.2 µg/mL

B9: M18 (7G1), mouse hybridoma antibody (antibody, V domains shown)
VH: QIQLVQSGPELKKPGETVKISCKASGYTFTTYGMTWVKQAPGKGLKWMGWINTYSGVPTYIDDFKGRFAFSLETSASTAYLQINNLKNEDTATYFCGRKDLLGFMDYWGQGTSVTVSS
VL: DIQMTQSPSSLSASLGGKVTITCKTSQDINKFMAWYQHKPGKGPRLLIRYTSTLQPGIPSRFSGSGSGRDYSFSIRNLEPEDIATYYCLQYDDLTWTFGGGTKLEI
notes: Hybridoma supernatant, detected with anti-mouse Fc
Lovo binding percentage [4]: 89.5%

B10: M7 (11B6), mouse hybridoma antibody (antibody, V domains shown)
VH: EVQLQQSGAELVRPGASVKLSCTVSGFNIKDDYMHWVKQRPEQGLEWIGWIDPENGDTEYASKFQGKATITADTSSNSAYLQLSSLTSEDTAVYYCTFIYYVNPHYYAMDYWGQGTSVTVSS
VL: QIVLTQSPAIMSASPGEKVTITCSATSSVSYMHWFQQKPGTSPKLWIYSTSNLASGVPARFSGSGSGTSYSLTISRVEAEDAATYYCQQRSSYPLTFGAGTKLELK
notes: as for B9
Lovo binding percentage [4]: 54.6%

B11: M7 (11B6) chimeric recombinant antibody (antibody, V domains shown)
VH: B10 VH
VL: B10 VL
EC50 [5]: 2.6 µg/mL
EC50 [6]: 1.9 µg/mL
EC50 [7]: 8 ng/mL

B12: M17 (6A8), mouse hybridoma antibody (antibody, V domains shown)
VH: EVQLQQSGAELVRPGASVKLSCTASGFNIKDDYMHWVKQRPEQGLEWIGWIDPENGDTEYASKFQGKATITADTSSNTAYLLLSSLTSEDTAVYYCTTIYYYGSRGAMDYWGQGTSVTVSS
VL: B10 VL with T26S, S49T, N52T, S71F, V77M, Q88H
notes: as for B9
Lovo binding percentage [4]: 34.7%

Next, values leading:

EC50 [1]: 5.7 µg/mL
Emax [1]: 118%
EC50 [2]: 3.11 µg/mL
Emax Inhibition, % [3]: 47.2%
IC50 [3]: 6.9 µg/mL
B2: Humanized antibody hAb-006 (antibody, V domains shown)
VH: B1 VH with D35N, A44G, V48L, T51I, A63S, D76I
VL: DIVLSQSPGTLSLSPGERATLSCRASSSVSYIHWYQQKPGQAPRPWIHGTSNLASGIPDRFSGSGSGTDYTLTISRLEPEDFAVYYCQQWSSNLSTFGGGTKVEIK
notes: also called hM19-4

EC50 [1]: 3250 µg/mL
Emax [1]: 9.1%
binding result [2]: no binding
B3: Humanized antibody hAb-005 (antibody, V domains shown)
VH: B1 VH with Y33T, D35S, T51I, A63S, A64D, K67E, D76N, S80T, K89R, T90A
VL: DIQLTQSPSSLSASVGDRVTITCRASSSVSYIHWYQQKPGKSPKPWIYGTSNLASGVPSRFSGSGSGTDYTLTISSLQPEDAATYYCQQWSSNLSTFGQGTKVEIK
notes: also called hM19-3

EC50 [1]: 3.2 µg/mL
Emax [1]: 48.4%
EC50 [2]: 4.32 µg/mL
Emax Inhibition, % [3]: 73.2%
IC50 [3]: 6.4 µg/mL
B4: Humanized antibody hAb-016 (antibody, V domains shown)
VH: B1 VH
VL: B1 VL with Q1E, A9G, A59D, S76R
notes: also called hM19-14

EC50 [1]: 1.8 µg/mL
Emax [1]: 109%
EC50 [2]: 2.87 µg/mL
Emax Inhibition, % [3]: 62.7%
IC50 [3]: 2.7 µg/mL
B5: Humanized antibody hAb-009 (antibody, V domains shown)
VH: B1 VH with D35N, V48L, T51I
VL: B1 VL with Q1E, S27Q, L46W, Y48H, S55T
notes: also called hM19-7

EC50 [1]: 2.2 µg/mL
Emax [1]: 57.7%
EC50 [2]: 7.05 µg/mL
Emax Inhibition, % [3]: 73.9%
IC50 [3]: 4.5 µg/mL
B6: Humanized antibody hAb-017 (antibody, V domains shown)
VH: B1 VH
VL: B1 VL with Q1E, T50A
notes: also called hM19-15

EC50 [1]: 2.7 µg/mL
Emax [1]: 85.1%
EC50 [2]: 3.69 µg/mL
Emax Inhibition, % [3]: 51.3%
IC50 [3]: 3.9 µg/mL
B7: Humanized antibody hAb-003 (antibody, V domains shown)
VH: B1 VH with Y33F, D35N, F50Q, T51M, A64E, K67E
VL: B3 VL with L4M, W46L, Y70F, V103L
notes: also called hM19-1

EC50 [1]: 1.3 µg/mL
Emax [1]: 60.6%
EC50 [2]: 3.56 µg/mL
Emax Inhibition, % [3]: 75%
IC50 [3]: 2.3 µg/mL
B8: Humanized antibody hAb-010 (antibody, V domains shown)
VH: B1 VH with T51I
VL: B1 VL with Q1E, L53R, S55T
notes: also called hM19-8
